Data published in patent US7632650B2, “Diagnostics and therapeutic uses of topors” (University of Medicine and Dentistry of New Jersey, priority 2002, dated 2009).

Legend:
[1] = test system: HeLa cells expressing GFP-topors or GFP-PML; test: imaging of GFP-topors or GFP-PML in nuclear bodies before and after treatment; type: cell-based, human; conditions: 10 μM, thirty minutes
Procedure: Acute promyelocytic leukemia, a type of cancer affecting the blood, is characterized by an abnormal block in the development of stem cells. It has now been discovered that topors localizes in nuclear bodies associated with promyelocytic leukemia (PML) oncogenic domains. In these experiments HeLa cells were immunostained with antibodies recognizing both topors and PML. Separate and merged fluorescent images from a representative cell were analyzed. PML nuclear bodies are nuclear depot sites, which are disrupted in cells from patients with promyelocytic leukemia with t (15;17) . Topors relocalized to the nucleoplasm after DNA damage. […] In these experiments, HeLa cells expressing GFP-topors or GFP-PML were imaged before and after treatment with 0.1% DMSO, 10 μM DRB, 10 μM CPT, or 30 μM cycloheximide for thirty minutes.

IkBα = molecular target: T1, IkBα (Homo sapiens, UniProt P25963); test: in vitro sumoylation of IkBα; type: biochemical; conditions: E1 and Ubc9
T1 sequence (P25963 1-317): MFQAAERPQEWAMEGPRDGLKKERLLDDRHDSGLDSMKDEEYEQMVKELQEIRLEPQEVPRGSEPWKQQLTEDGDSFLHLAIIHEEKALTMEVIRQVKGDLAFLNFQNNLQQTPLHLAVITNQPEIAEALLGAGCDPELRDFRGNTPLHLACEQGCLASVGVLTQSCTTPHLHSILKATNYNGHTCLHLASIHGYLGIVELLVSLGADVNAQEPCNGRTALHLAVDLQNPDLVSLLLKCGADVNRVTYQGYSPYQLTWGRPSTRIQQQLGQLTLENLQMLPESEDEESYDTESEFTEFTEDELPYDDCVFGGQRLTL
Procedure: (§1) Reaction products were analyzed using monoclonal anti-p53 and polyclonal anti-IkBα antibodies.

top1 = molecular target: T2, top1 (Homo sapiens, UniProt P11387); test: in vitro top1 sumoylation with purified components; type: biochemical; conditions: purified sumo conjugation components, purified top1 and topors
T2 sequence (P11387 1-765): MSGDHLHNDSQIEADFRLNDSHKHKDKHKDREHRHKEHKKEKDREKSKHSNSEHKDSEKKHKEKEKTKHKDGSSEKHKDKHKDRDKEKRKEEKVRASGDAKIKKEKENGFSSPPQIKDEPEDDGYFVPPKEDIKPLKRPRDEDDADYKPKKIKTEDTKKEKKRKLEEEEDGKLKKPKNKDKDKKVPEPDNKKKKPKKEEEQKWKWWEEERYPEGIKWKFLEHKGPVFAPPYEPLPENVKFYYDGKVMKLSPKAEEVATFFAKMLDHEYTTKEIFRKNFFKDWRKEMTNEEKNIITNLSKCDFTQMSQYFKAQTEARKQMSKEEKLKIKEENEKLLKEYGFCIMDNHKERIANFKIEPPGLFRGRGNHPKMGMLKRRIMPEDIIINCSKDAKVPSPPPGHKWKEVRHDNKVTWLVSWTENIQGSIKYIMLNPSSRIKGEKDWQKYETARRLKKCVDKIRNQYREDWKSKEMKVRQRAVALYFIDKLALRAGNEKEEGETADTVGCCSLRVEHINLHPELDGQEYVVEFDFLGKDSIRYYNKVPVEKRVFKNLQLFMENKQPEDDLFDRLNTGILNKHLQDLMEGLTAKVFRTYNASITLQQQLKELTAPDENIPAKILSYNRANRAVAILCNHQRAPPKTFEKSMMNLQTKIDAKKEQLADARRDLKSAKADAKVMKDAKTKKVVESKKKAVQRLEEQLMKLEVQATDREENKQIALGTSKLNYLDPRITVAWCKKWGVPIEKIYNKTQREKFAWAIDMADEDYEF
Procedure: Topors is homologous in the RING domain to proteins implicated in conjugation of ubiquitin and SUMO, such as MDM2 and BRCA1. Previously, it has been shown that topors binds to the N-terminus of top1. […] Topors also redistributes from PML (promyelocytic leukemia) nuclear bodies to a diffuse nuclear localization when exposed to CPT. When incubated with a HeLa cell fraction containing SAE1/SAE2, purified SUMO-1, and purified Ubc9, minimal top1-SUMO conjugates could be detected using Top1 and SUMO antibodies.
Using purified components of the sumo conjugation system as well as purified top1 and topors, top1-SUMO conjugates were detected. Removing any of the sumoylation components or topors abrogated top1 sumoylation.

mammalian cells = test: SUMO-2 conjugate formation in cells; type: cell-based
Description: Additionally, it was shown that topors functions as an E3-type ubiquitin ligase an E3-type SUMO ligase for topoisomerase and p53. Thus, topors is a dual function ubiquitin and SUMO ligase. Recombinant topors enhances formation of polyubiquitin conjugates by specific E2 ubiquitin enzymes in vitro, with the RING domain necessary and sufficient for this activity. While topors-induced ubiquitination of bacterially expressed top1 was unable to be detected in vitro, similar assays using Ubc9, SAE1/SAE2, and SUMO-1 indicate that topors stimulates formation of top1-SUMO-1 conjugates by Ubc9. […] Instead, this activity maps to the 536-704 region, which contains a nuclear localization sequence and is within the top1-binding region. Ectopic expression of topors in HeLa cells increases formation of SUMO-2 conjugates.
as §1

p53 = p53 (Homo sapiens, UniProt P04637); test: in vitro sumoylation of p53; type: biochemical; conditions: E1 and Ubc9
Chain of p53 (P04637 whole entry, species assumed): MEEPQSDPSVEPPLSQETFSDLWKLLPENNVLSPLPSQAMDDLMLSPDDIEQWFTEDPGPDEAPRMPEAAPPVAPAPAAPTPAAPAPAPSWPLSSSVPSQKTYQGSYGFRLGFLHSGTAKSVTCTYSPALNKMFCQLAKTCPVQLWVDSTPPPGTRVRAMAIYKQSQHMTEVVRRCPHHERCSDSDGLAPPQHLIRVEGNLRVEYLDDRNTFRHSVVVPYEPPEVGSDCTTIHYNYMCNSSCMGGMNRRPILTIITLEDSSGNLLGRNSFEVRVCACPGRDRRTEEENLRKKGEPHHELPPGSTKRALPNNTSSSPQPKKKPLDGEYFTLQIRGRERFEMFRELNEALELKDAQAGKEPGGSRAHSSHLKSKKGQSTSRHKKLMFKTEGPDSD
Procedure: as §1

ubiquitin = test: in vitro ubiquitination reaction with E1, E2 proteins and ubiquitin; type: biochemical; conditions: 400 ng E1, 200 ng E2, 3 μg ubiquitin, ~100 ng GST-topors or GST
Procedure: This analysis was carried out using reactions containing 400 ng E1, 200 ng of various E2 proteins, 3 μg of ubiquitin, and either ˜100 ng GST-topors or GST. Reaction products were resolved by SDS-PAGE under reducing conditions. Migration of probable poly-ubiquitin chains was determined. All E2s were active as assessed by thiolester formation.

[2] = test system: cervical cancer cell line; test: overexpression of topors in cancer cell line; type: cell-based
Description: The topors protein was not detected in lysates from several different tumor cell lines. In this regard, in matched normal and tumor human tissue specimens, the topors protein was detectable only in normal tissues (FIGS. 3 and 4).

## OC[C@H]1O[C@@H](n2cnc3cc(Cl)c(Cl)cc32)[C@H](O)[C@@H]1O [DRB]
[1]
  dispersion of topors / PML from nuclear bodies: induce rapid dispersion of topors but not PML from nuclear bodies

## CC[C@@]1(O)C(=O)OCc2c1cc1n(c2=O)Cc2cc3ccccc3nc2-1 [CPT, camptothecin]
[1]
  dispersion of topors / PML from nuclear bodies: induce rapid dispersion of topors but not PML from nuclear bodies

B1: topors: RING protein that binds topoisomerase 1 and p53; dual E3 ubiquitin/SUMO ligase (protein)
chain: MGSQPPLGSPLSREEGEAPPPAPASEGRRRSRRVRLRGSCRHRPSFLGCRELAASAPARPAPASSEIMASAAKEFKMDNFSPKAGTSKLQQTVPADASPDSKCPICLDRFDNVSYLDRCLHKFCFRCVQEWSKNKAECPLCKQPFDSIFHSVRAEDDFKEYVLRPSYNGSFVTPDRRFRYRTTLTRERNASVYSPSGPVNRRTTTPPDSGVLFEGLGISTRPRDVEIPQFMRQIAVRRPTTADERSLRKIQEQDIINFRRTLYRAGARVRNIEDGGRYRDISAEFFRRNPACLHRLVPWLKRELTVLFGAHGSLVNIVQHIIMSNVTRYDLESQAFVSDLRPFLLNRTEHFIHEFISFARSPFNMAAFDQHANYDCPAPSYEEGSHSDSSVITISPDEAETQELDINVATVSQAPWDDETPGPSYSSSEQVHVTMSSLLNTSDSSDEELVTGGATSQIQGVQTNDDLNNDSDDSSDNCVIVGFVKPLAERTPELVELSSDSEDLGSYEKMETVKTQEQEQSYSSGDSDVSRCSSPHSVLGKDEQINKGHCDSSTRIKSKKEEKRSTSLSSPRNLNSSVRGDRVYSPYNHRHRKRGRSRSSDSRSQSRSGHDQKNHRKHHGKKRMKSKRSRSRESSRPRGRRDKKRSRTRDSSWSRRSQTLSLSSESTSRSRSRSSDHGKRRSRSRNRDRYYLRNNYGSRYKWEYTYYSRNKDRDGYESSYRRRTLSRAHYSRQSSSPEFRVQSFSERTNARKKNNHSERKYYYYERHRSRSLSSNRSRTASTGTDRVRNEKPGGKRKYKTRHLEGTNEVAQPSREFASKAKDSHYQKSSSKLDGNYKNESDTFSDSRSSDRETKHKRRKRKTRSLSVEIVYEGKATDTTKHHKKKKKKHKKKHKKHHGDNASRSPVVITIDSDSDKDSEVKEDTECDNSGPQDPLQNEFLAPSLEPFETKDVVTIEAEFGVLDKECDIATLSNNLNNANKTVDNIPPLAASVEQTLDVREESTFVSDLENQPSNIVSLQTEPSRQLPSPRTSLMSVCLGRDCDMS
IkBα
  sumoylation of IkBα: not IkBα
top1
  top1 sumoylation in vitro: enhances top1 sumoylation in vitro
Mammalian cells
  SUMO-2 conjugates: increases SUMO-2 conjugates
p53
  sumoylation of p53: activates sumoylation of p53
ubiquitin
  E3 ubiquitin ligase function (poly-ubiquitin chains): functions as an E3 ubiquitin ligase
[2]
  effect of overexpression on cancer cells: cell death
